Test results taken from patent EP0614981A1.

Target: IFNγ (UniProt P01579)
Assay: cell-based or functional assay

Chain of UniProt P01579 (P01579 24-166 limits assumed): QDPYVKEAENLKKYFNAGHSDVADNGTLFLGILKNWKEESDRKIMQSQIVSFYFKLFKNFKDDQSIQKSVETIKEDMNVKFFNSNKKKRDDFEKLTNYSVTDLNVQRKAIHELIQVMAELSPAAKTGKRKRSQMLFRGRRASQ

Substance	IC50 nM, inhibition of IFNγ antiviral activity (CPE, WISH cells, EMC virus)	IC50 µg/ml, inhibition of IFNγ antiviral activity (CPE, WISH cells, EMC virus)
hIFNγR-HG3 (from UniProt P01860 99-377) (Fc fusion)	11 nM	2 µg/mL
hIFNγR-HG1 (from UniProt P01857 99-330) (Fc fusion)	26 nM	4.4 µg/mL
soluble human IFNγ receptor (shIFNγR)	216 nM	6.7 µg/mL
